Source: patent US20150056222A1

Molecular target: mouse PRLR on HEK293 cells (mouse) (UniProt Q08501)
Experiment: FACS, HEK293/mPRLR cells

mouse PRLR on HEK293 cells (mouse), sequence (Q08501 20-608): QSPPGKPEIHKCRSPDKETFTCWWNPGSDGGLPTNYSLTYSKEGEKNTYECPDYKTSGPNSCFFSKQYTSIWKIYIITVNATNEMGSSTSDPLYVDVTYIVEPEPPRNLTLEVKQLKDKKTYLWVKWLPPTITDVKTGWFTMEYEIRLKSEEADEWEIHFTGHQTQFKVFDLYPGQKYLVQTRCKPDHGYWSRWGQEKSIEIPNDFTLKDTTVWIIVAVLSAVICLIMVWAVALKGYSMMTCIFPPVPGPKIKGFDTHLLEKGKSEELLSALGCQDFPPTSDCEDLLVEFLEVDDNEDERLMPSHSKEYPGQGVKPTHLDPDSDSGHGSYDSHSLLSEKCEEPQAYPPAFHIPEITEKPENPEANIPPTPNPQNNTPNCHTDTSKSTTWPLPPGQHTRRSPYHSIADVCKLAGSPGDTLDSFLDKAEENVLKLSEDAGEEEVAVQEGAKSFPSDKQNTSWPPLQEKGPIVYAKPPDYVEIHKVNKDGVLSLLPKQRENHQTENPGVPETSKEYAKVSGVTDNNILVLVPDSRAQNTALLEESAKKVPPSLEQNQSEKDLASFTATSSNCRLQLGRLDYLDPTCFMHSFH

Isotype Ctrl I (antibody)
FACS Cell Binding (Fold Above Background) (fold above background): 1
